Sequences and labels used below:
T1: WT ICOS (wild-type inducible T-cell costimulator, transfected into Jurkat JTAg T cells) (Homo sapiens (Human), UniProt Q9Y6W8 21-199)
T1 sequence: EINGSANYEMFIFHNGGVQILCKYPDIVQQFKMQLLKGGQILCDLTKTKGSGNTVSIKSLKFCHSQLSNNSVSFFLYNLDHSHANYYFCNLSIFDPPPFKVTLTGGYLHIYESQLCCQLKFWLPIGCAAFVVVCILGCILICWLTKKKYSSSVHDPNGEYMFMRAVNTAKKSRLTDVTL

B1: FLAG-tagged WT TRAF3 (other)
chain: MESSKKMDSPGALQTNPPLKLHTDRSAGTPVFVPEQGGYKEKFVKTVEDKYKCEKCHLVLCSPKQTECGHRFCESCMAALLSSSSPKCTACQESIVKDKVFKDNCCKREILALQIYCRNESRGCAEQLMLGHLLVHLKNDCHFEELPCVRPDCKEKVLRKDLRDHVEKACKYREATCSHCKSQVPMIALQKHEDTDCPCVVVSCPHKCSVQTLLRSELSAHLSECVNAPSTCSFKRYGCVFQGTNQQIKAHEASSAVQHVNLLKEWSNSLEKKVSLLQNESVEKNKSIQSLHNQICSFEIEIERQKEMLRNNESKILHLQRVIDSQAEKLKELDKEIRPFRQNWEEADSMKSSVESLQNRVTELESVDKSAGQVARNTGLLESQLSRHDQMLSVHDIRLADMDLRFQVLETASYNGVLIWKIRDYKRRKQEAVMGKTLSLYSQPFYTGYFGYKMCARVYLNGDGMGKGTHLSLFFVIMRGEYDALLPWPFKQKVTLMLMDQGSSRRHLGDAFKPDPNSSSFKKPTGEMNIASGCPVFVAQTVLENGTYIKDDTIFIKVIVDTSDLPDP
notes: Expressed in HEK293T cells; The position of the FLAG tag is unknown; not shown: FLAG tag
B2: TANK-binding kinase 1 (TBK1), endogenous, human cell lines (Jurkat JTAg, HEK293T) (enzyme, UniProt Q9UHD2 1-729, looked up)
chain: MQSTSNHLWLLSDILGQGATANVFRGRHKKTGDLFAIKVFNNISFLRPVDVQMREFEVLKKLNHKNIVKLFAIEEETTTRHKVLIMEFCPCGSLYTVLEEPSNAYGLPESEFLIVLRDVVGGMNHLRENGIVHRDIKPGNIMRVIGEDGQSVYKLTDFGAARELEDDEQFVSLYGTEEYLHPDMYERAVLRKDHQKKYGATVDLWSIGVTFYHAATGSLPFRPFEGPRRNKEVMYKIITGKPSGAISGVQKAENGPIDWSGDMPVSCSLSRGLQVLLTPVLANILEADQEKCWGFDQFFAETSDILHRMVIHVFSLQQMTAHKIYIHSYNTATIFHELVYKQTKIISSNQELIYEGRRLVLEPGRLAQHFPKTTEENPIFVVSREPLNTIGLIYEKISLPKVHPRYDLDGDASMAKAITGVVCYACRIASTLLLYQELMRKGIRWLIELIKDDYNETVHKKTEVVITLDFCIRNIEKTVKVYEKLMKINLEAAELGEISDIHTKLLRLSSSQGTIETSLQDIDSRLSPGGSLADAWAHQEGTHPKDRNVEKLQVLLNCMTEIYYQFKKDKAERRLAYNEEQIHKFDKQKLYYHATKAMTHFTDECVKKYEAFLNKSEEWIRKMLHLRKQLLSLTNQCFDIEEEVSKYQEYTNELQETLPQKMFTASSGIKHTMTPIYPSSNTLVEMTLGMKKLKEEMEGVVKELAENNHILERFGSLTMDGGLRNVDCL
notes: Species follows from the human cell lines; also called endogenous TBK1
B3: ICOS with alanine-substituted IProx motif (170…179 to 170AAAAAAAAAA179) (receptor)
chain: T1 sequence with S150A, S151A, S152A, V153A, H154A, D155A, P156A, N157A, G158A, E159A
notes: Expressed from a plasmid in Jurkat JTAg cells; also called mIProx; IProx mutant

The target in experiment [1] is WT ICOS (wild-type inducible T-cell costimulator, transfected into Jurkat JTAg T cells) (Homo sapiens (Human)) (UniProt Q9Y6W8). Kind of experiment: SILAC mass spectrometry of anti-ICOS IPs from Jurkat cells expressing WT ICOS or mIProx, stimulated with anti-CD3 plus anti-ICOS.
Experiment [2] deals with B2. The experiment in a line: anti-FLAG IP and immunoblot, transfected HEK293T cells (FIG. 6e). Here is the method: Shown are representative of three experiments.
(§1) The human leukemic Jurkat T cell line, JTAg, was previously described (Li, J et al. J Immunol 2013, 191(1): 200-207; Rolf J et al., J Immunol 2010, 185(7): 4042-4052) and the HEK 293T cell line was obtained from ATCC. These cell lines have not been recently STR profiled but tested negative for mycoplasma contamination. JTAg cells in logarithmic growth phase were transfected with plasmid DNAs by electroporation and incubated for 24 hours.
(In western blotting, separated proteins are transferred to a membrane and probed.)

In experiment [3] the target is T1, WT ICOS (wild-type inducible T-cell …). The experiment in a line: SILAC mass spectrometry of anti-ICOS IPs from Jurkat cells expressing WT ICOS or mIProx, stimulated with anti-CD3 plus anti-ICOS.
Description: FACS-sorted GFP⁺ transduced cells were stimulated with α-CD3 plus α-ICOS mAbs for 2 minutes. 300 μg of the protein mixture derived from WT and mutant cell lysate were mixed at a 1:1 ratio, and immunoprecipitated with anti-ICOS mAb. Immunoprecipitants were subjected to an on-bead digestion protocol. The proteins were reduced with 100 mM Tris-HCl/8 M urea/5 mM tris(2-carboxyethyl)phosphine, and alkylated with 10 mM iodoacetamide. The solution was diluted 1:4 and digested with 1 μg of trypsin at 37° C. overnight. […] MS analysis was performed using an LTQ-Orbitrap Velos mass spectrometer (Thermo Fisher). […] The experiments were biologically repeated in four replicates, including medium isotope type swapping (heavy or light) between WT and mutant cells.
The target of experiment [4] is T2, p85α, the regulatory subunit of PI3K, endogenous, Jurkat cells (human, UniProt P27986 2-724).
T2 construct: Species follows from the human cell line; also called p85a
T2 sequence (P27986 2-724): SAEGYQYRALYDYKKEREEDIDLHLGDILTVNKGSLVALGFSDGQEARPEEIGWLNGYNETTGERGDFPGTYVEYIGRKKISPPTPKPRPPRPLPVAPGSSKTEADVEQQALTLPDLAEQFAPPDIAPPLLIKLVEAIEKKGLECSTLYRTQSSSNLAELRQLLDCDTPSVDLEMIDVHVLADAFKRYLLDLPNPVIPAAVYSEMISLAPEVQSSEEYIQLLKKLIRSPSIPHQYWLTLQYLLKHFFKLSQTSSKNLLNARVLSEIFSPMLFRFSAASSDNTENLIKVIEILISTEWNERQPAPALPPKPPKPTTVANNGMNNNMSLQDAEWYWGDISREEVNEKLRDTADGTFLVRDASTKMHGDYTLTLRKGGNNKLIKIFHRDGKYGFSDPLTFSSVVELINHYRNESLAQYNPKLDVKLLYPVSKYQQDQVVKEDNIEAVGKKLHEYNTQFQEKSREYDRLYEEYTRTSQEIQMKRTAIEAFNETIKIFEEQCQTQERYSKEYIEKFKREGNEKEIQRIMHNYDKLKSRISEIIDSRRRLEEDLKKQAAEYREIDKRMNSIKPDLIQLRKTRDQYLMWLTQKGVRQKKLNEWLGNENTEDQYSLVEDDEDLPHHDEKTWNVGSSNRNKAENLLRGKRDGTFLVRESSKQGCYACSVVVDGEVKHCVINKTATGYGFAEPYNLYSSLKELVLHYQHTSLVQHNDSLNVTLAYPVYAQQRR
The experiment in a line: co-IP (anti-ICOS IP, immunoblot), transfected Jurkat cells stimulated with anti-CD3 plus anti-ICOS (FIG. 2b, 2c).
Description: IPs or whole cell lysates (WCL) were immunoblotted with the indicated Abs. 5% WCL was used as input to control for IP Western. […] Jurkat T cells transfected with WT ICOS, mIProx, YF or tailless (TL) ICOS plasmids were stimulated with anti-CD3 plus −ICOS mAbs prior to IP and immunoblotting. […] In vitro activated primary mouse CD4⁺ T cells were stimulated with anti-CD3 plus the indicated costimulatory mAbs, and IP or WCL were subjected to immunoblotting with the indicated Abs. Shown are representative of three experiments.
as §1

Changes are numbered by the printed parent chain.

Experimental findings from patent US20180369326A1 (LA JOLLA INSTITUTE FOR ALLERGY AND IMMUNOLOGY, published 2018) are described below.

With “SLP76 (TCR signaling), endogenous, Jurkat cells (from UniProt Q13094 1-533)”, the Fold Change (differential binding ratio, WT ICOS IP vs mIProx ICOS IP) in experiment [1] was 2.08 fold.
Same read-out and setting: the result for “Erlin2 (ER protein), endogenous, Jurkat cells (from UniProt O94905 1-339)” reads 1.81 fold; that for “MYCBP2 (E3 ligase), endogenous, Jurkat cells (from UniProt O75592 1-4678) (enzyme)”, 5.26 fold.
For “NAA10 (acetyltransferase), endogenous, Jurkat cells (from UniProt P41227 1-235) (enzyme)”, the Fold Change (differential binding ratio, WT ICOS IP vs mIProx ICOS IP) in experiment [1] came out at 2.95 fold.
The same measure, in the same setting: to “GAK (cell cycle kinase), endogenous, Jurkat cells (from UniProt O14976 2-1311) (enzyme)” belongs 2.17 fold; to “BAG6 (chaperone), endogenous, Jurkat cells (from UniProt P46379 1-1132)”, 3.13 fold.
Regarding B1, the binding result in experiment [2] is “binds”.
As to B2, the “Fold Change (differential binding ratio, WT ICOS IP vs mIProx ICOS IP)” value in experiment [3] was 7.69 fold.
In the case of B3, the binding result in experiment [4] is given as “binds”.
